B1: 6266wt (Fab, V domains shown)
VH: QVQLVQSGAEVKKPGSSVKVSCKASGGTLSGYGVSWVRQAPGQGLEWMGNIIPGFGTANYAQKFQGRVTITADESTSTAYMELSSLRSEDTAVYYCARSGGTKYGMLDVWGQGTMVTVSS
VL: EIVMTQSPATLSVSPGERATLSCRASQSVSSNLAWYQQKPGQAPRLLIYGASTRATGIPARFSGSGSGTEFTLTISSLQSEDFAVYYCQQLILWPPRTFGGGTKVEIK
notes: also called ADI6266
B2: 6266.4 Fab (Fab, V domains shown)
VH: QVQLVQSGAEVKKPGSSVKVSCKASGGTLSHYGVSWVRQAPGQGLEWMGNIIPGIGTANYAQKFQGRVTITADESTSTAYMELSSLRSEDTAVYYCARSGGTKYGMLDVWGQGTMVTVSS
VL: EIVMTQSPATLSVSPGERATLSCRASQSVSSNLAWYQQKPGQAPRLLIYGASKRATGIPARFSGSGSGTEFTLTISSLQSEDFAVYYCQQLILWPPRTFGGGTKVEIK
B3: 6266.1 Fab (Fab, V domains shown)
VH: QVQLVQSGAEVKKPGSSVKVSCKASGGTLSHYGVSWVRQAPGQGLEWMGNIIPGIGTANYAQKFQGRVTITADESTSTAYMELSSLRSEDTAVYYCARSGGTKYGMLDVWGQGTMVTVSS
VL: EIVMTQSPATLSVSPGERATLSCRASQSVSSNLAWYQQKPGQAPRLLIYGASTRATGIPARFSGSGSGTEFTLTISSLQSEDFAVYYCQQLILWPPRTFGGGTKVEIK
notes: not tied singly
B4: 6266.5 Fab (Fab, V domains shown)
VH: QVQLVQSGAEVKKPGSSVKVSCKASGGTLSHYGVSWVRQAPGQGLEWMGNIIPGIGTANYAQKFQGRVTITADESTSTAYMELSSLRSEDTAVYYCARSGGTQYGMLDVWGQGTMVTVSS
VL: EIVMTQSPATLSVSPGERATLSCRASQSVSSNLAWYQQKPGQAPRLLIYGASKRATGIPARFSGSGSGTEFTLTISSLQSEDAAVYYCQQLILWPPRTFGGGTKVEIK
B5: 6266.3 Fab (Fab, V domains shown)
VH: QVQLVQSGAEVKKPGSSVKVSCKASGGTLSHYGVSWVRQAPGQGLEWMGNIIPGIGTANYAQKFQGRVTITADESTSTAYMELSSLRSEDTAVYYCARSGGTKYGMLDVWGQGTMVTVSS
VL: EIVMTQSPATLSVSPGERATLSCRASQSVSSNLAWYQQKPGQAPRLLIYGASTRAYGIPARFSGSGSGTEFTLTISSLQSEDFAVYYCQQLILWPPRTFGGGTKVEIK
B6: 6266.6 Fab (Fab, V domains shown)
VH: QVQLVQSGAEVKKPGSSVKVSCKASGGTLSHYGVSWVRQAPGQGLEWMGNIIPGIGTANYAQKFQGRVTITADESTSTAYMELSSLRSEDTAVYYCARSGGTQYGMLDVWGQGTMVTVSS
VL: EIVMTQSPATLSVSPGERATLSCRASQSVSSNLAWYQQKPGQAPRLLIYGASTRAYGIPARFSGSGSGTEFTLTISSLQSEDAAVYYCQQLILWPPRTFGGGTKVEIK
B7: 6266.2 Fab (Fab, V domains shown)
VH: QVQLVQSGAEVKKPGSSVKVSCKASGGTLSHYGVSWVRQAPGQGLEWMGNIIPGIGTANYAQKFQGRVTITADESTSTAYMELSSLRSEDTAVYYCARSGGTKYGMLDVWGQGTMVTVSS
VL: EIVMTQSPATLSVSPGERATLSCRASQSVSSNLAWYQQKPGQAPRLLIYGASKRATGIPARFSGSGSGTEFTLTISSLQSEDAAVYYCQQLILWPPRTFGGGTKVEIK
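Also: Single-cycle kinetics with serially diluted Fab flowed over BACE1 captured by anti-His antibody on a CM5 chip, rates fitted to a one-to-one Langmuir model, Kd derived as koff over kon.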

In this assay the target is His-tagged BACE1 protein (Example 15) (Homo sapiens (Human), UniProt P56817 22-457). Nature of the assay: SPR (Biacore T200), Fab on captured His-BACE1. (SPR reads the build-up and loss of mass on a sensor chip optically.)
Sequence of His-tagged BACE1 protein (Example 15) (P56817 22-457 limits assumed): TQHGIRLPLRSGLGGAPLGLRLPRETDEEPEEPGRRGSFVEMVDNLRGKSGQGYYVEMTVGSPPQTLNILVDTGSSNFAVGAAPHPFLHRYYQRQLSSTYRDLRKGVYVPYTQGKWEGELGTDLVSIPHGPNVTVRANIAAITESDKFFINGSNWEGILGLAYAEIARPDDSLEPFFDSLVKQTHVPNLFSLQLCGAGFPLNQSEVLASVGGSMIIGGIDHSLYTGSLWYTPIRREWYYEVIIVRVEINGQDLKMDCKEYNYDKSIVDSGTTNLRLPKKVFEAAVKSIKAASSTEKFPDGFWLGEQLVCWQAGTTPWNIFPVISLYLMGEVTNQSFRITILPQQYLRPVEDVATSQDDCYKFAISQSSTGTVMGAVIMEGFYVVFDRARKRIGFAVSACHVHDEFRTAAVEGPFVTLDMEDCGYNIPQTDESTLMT
Protocol: The binding affinity of anti-BACE1 Fab antibodies by single-cycle kinetics was determined using surface plasmon resonance (SRP) measurement with a BIAcore™ T200 instrument. Briefly, series S sensor chip CM5 was activated with EDC and NHS reagents according to the supplier's instructions, and anti-His antibody was coupled to achieve approximately 1000 response units (RU), then following by blocking un-reacted groups with 1M ethanolamine. For kinetics measurements, His-tagged BACE1 protein was first injected at 10 μl/min flow rate to capture approximately 100 RU at 3 different flow cells (FC), except for FC1 (reference), and then 5-fold serial dilutions of Fab in HBS-P buffer (0.01M HEPES pH 7.4, 0.15M NaCl, 0.005% surfactant P20) from low (0.08 nM) to high (50 nM) were injected (flow rate: 30 μl/min) one after the other in the same cycle with no regeneration between injections. The sensorgram was recorded and subject to reference and buffer subtraction before evaluating by BIAcore™ T200 Evaluation Software (version 2.0). Association rates (kon) and dissociation rates (koff) were calculated using a simple one-to-one Langmuir binding model. The equilibrium dissociation constant (Kd) was calculated as the ratio koff/kon.
Molecule B1 gave a Kd of 1.09 nM, a koff of 0.000403 s⁻¹ and a kon of 371000 M⁻¹ s⁻¹.

B2 displayed a Kd of 0.26 nM, a koff of 0.00017 s⁻¹ and a kon of 638000 M⁻¹ s⁻¹.

B3 registered a Kd of 0.24 nM, a koff of 0.000161 s⁻¹ and a kon of 654000 M⁻¹ s⁻¹.

As to B4, the Kd was found to be 0.53 nM, the koff was 0.000228 s⁻¹ and the kon stood at 428000 M⁻¹ s⁻¹.

With B5, the Kd came to 0.29 nM, the koff came to 0.000142 s⁻¹ and the kon was determined as 480000 M⁻¹ s⁻¹.

For the molecule B6, binding was characterised by a dissociation constant (Kd) of 0.78 nM, the off-rate constant (koff) was determined as 0.000278 s⁻¹ and the kon is 356000 M⁻¹ s⁻¹.

The molecule B7 came in with a Kd of 0.58 nM, a koff of 0.000142 s⁻¹ and a kon of 245000 M⁻¹ s⁻¹.

Usually Kd stands for a measure of binding affinity in units of concentration. Low readings indicate higher affinity, high ones lower affinity. The koff is a measure of how fast the partners let go of each other. Lower therefore signals a long-lived complex. As a reminder, the kon is a measure of how fast the partners come together.

The record behind these values is patent publication US20180057604A1 (Genentech, published 2018).
